# T1: CXCR4-VC (CXCR4 fused with C-terminal fragment of Venus) (human)
# T1 chain: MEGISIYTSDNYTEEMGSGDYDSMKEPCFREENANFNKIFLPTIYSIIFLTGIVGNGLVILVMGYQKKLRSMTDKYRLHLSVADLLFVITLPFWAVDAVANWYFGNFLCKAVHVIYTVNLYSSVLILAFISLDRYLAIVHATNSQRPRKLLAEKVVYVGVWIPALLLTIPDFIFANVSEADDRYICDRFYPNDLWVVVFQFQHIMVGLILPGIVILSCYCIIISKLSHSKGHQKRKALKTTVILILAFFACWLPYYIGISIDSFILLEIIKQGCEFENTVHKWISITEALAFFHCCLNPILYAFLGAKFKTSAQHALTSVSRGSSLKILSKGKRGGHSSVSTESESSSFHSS
# Target: T1, CXCR4-VC (CXCR4 fused with C-terminal …)
# Assay: BiFC, U-2 OS cells co-transduced with adenoviruses (30 MOI each)
# Details: remark: other sources report otherwise; scale: BiFC score =
binder,measurement,value
"CXCR4-VN (CXCR4 fused with N-terminal fragment of yellow fluorescent protein Venus), P61072 1-352 (receptor, not shown: small tags and cut ends, here or on the partner: Venus N-terminal fragment (VN) fused to the receptor. Its letters are not given, so it is left out.; Venus C-terminal fragment (VC) fused to the receptor. Its letters are not given, so it is left out.) MEGISIYTSDNYTEEMGSGDYDSMKEPCFREENANFNKIFLPTIYSIIFLTGIVGNGLVILVMGYQKKLRSMTDKYRLHLSVADLLFVITLPFWAVDAVANWYFGNFLCKAVHVIYTVNLYSSVLILAFISLDRYLAIVHATNSQRPRKLLAEKVVYVGVWIPALLLTIPDFIFANVSEADDRYICDRFYPNDLWVVVFQFQHIMVGLILPGIVILSCYCIIISKLSHSKGHQKRKALKTTVILILAFFACWLPYYIGISIDSFILLEIIKQGCEFENTVHKWISITEALAFFHCCLNPILYAFLGAKFKTSAQHALTSVSRGSSLKILSKGKRGGHSSVSTESESSSFHSS",BiFC score,9.9
